Results as given in patent publication US20150064134A1.

Columns and labels:
Assay in all cases: cell-based or functional assay
[1] = molecular target: CaMKIV(h) (human) (UniProt Q16566)
[2] = molecular target: T1, PKD2(h) (human) (UniProt Q9BZL6)
T1 sequence (looked up): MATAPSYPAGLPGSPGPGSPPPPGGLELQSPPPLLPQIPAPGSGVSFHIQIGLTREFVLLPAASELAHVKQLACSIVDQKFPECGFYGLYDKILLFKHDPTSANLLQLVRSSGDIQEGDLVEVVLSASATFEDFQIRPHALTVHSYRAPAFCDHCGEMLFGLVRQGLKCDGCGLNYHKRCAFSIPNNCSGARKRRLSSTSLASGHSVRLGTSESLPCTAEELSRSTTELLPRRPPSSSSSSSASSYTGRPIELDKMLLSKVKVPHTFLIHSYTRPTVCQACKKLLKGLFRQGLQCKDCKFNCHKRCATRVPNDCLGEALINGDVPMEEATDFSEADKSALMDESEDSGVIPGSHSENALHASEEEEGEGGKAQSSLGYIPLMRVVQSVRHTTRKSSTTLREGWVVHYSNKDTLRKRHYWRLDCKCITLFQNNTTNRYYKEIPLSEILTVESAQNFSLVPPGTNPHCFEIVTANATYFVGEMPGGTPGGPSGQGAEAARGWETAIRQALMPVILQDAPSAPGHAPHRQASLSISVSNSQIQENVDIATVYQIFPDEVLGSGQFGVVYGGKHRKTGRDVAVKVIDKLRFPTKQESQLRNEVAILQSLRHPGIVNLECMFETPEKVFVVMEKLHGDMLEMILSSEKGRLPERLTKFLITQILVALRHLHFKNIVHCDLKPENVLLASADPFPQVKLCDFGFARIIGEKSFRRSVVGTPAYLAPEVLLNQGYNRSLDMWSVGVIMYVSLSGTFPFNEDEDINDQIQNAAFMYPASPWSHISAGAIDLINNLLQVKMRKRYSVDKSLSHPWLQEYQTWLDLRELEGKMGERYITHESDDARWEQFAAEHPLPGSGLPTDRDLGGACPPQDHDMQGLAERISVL

[3] = molecular target: STK33(h) (human) (UniProt Q9BYT3)
[4] = molecular target: MSSK1(h) (human) (UniProt Q9UPE1)
[5] = molecular target: PAK2(h) (human) (UniProt Q13177)
[6] = molecular target: CaMKIIγ(h) (human) (UniProt Q13555)
[7] = molecular target: SIK(h) (human) (UniProt P57059)
[8] = molecular target: RIPK2(h) (human) (UniProt O43353)
[9] = molecular target: EGFR(T790M,L858R)(h) (human) (UniProt P00533)
[10] = molecular target: IGF-1R(h), activated (human) (UniProt P08069)
[11] = molecular target: T2, Ret(V804M)(h) (human) (UniProt P07949)
T2 sequence (looked up): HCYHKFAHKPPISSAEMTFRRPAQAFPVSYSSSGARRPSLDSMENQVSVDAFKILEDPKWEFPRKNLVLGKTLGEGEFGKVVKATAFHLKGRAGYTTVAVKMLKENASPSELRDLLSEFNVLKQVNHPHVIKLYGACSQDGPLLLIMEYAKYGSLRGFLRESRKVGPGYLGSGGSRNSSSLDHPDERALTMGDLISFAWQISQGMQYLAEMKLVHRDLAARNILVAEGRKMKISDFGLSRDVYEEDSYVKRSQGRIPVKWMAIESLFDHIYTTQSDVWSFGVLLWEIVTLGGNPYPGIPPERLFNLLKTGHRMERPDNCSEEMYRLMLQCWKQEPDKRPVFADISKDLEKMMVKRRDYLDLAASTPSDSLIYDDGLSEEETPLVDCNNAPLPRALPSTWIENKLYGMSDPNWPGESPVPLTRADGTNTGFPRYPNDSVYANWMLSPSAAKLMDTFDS

[12] = molecular target: ALK(h) (human) (UniProt Q9UM73)
[13] = molecular target: GSK3α(h) (human) (UniProt P49840)
[14] = molecular target: Src(1-530)(h) (human) (UniProt P12931)
[15] = molecular target: EGFR(L861Q)(h) (human) (UniProt P00533)
[16] = molecular target: CDK5/p35(h) (human) (UniProt Q00535)
[17] = molecular target: MEK1(h) (human) (UniProt Q02750)
[18] = molecular target: PKBγ(h) (human) (UniProt Q9Y243)
[19] = molecular target: Ros(h) (human) (UniProt P08922)
[20] = molecular target: CaMKIδ(h) (human) (UniProt Q8IU85)
[21] = molecular target: FGFR2(h) (human) (UniProt P21802)
[22] = molecular target: T3, TAO2(h) (human) (UniProt Q9UL54)
T3 sequence (looked up): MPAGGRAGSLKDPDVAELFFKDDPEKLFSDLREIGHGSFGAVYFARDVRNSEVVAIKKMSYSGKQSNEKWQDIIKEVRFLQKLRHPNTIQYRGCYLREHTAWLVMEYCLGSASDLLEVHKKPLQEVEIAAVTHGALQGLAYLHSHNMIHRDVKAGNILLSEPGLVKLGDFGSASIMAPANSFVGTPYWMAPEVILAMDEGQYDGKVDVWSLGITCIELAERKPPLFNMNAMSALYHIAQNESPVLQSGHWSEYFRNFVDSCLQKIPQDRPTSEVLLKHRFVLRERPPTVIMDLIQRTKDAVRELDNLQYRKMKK

[23] = molecular target: PKCθ(h) (human) (UniProt Q04759)

Chain of RIPK2(h) (human) (O43353 1-299 limits assumed): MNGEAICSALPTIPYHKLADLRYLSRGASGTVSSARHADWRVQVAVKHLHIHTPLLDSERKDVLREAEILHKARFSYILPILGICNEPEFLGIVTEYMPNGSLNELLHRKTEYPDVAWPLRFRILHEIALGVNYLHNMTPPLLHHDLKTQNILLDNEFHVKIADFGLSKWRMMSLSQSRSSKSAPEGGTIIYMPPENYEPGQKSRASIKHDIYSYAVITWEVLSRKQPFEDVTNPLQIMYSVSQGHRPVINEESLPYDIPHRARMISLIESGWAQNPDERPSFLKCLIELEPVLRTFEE
Chain of Ros(h) (human) (P08922 1883-2347 limits assumed): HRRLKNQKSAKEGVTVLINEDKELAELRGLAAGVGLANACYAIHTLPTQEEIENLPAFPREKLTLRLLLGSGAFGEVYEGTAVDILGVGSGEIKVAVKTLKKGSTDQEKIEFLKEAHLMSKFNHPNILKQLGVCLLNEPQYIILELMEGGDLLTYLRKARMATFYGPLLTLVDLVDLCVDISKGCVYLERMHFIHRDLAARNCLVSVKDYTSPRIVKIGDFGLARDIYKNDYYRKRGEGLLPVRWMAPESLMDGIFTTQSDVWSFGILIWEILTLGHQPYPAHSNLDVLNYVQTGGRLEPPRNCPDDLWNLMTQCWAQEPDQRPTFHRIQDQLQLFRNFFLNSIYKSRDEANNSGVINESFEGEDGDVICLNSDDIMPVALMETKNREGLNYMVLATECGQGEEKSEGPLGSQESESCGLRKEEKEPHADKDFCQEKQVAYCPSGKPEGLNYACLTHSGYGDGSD
Chain of FGFR2(h) (human) (P21802 456-770 limits assumed): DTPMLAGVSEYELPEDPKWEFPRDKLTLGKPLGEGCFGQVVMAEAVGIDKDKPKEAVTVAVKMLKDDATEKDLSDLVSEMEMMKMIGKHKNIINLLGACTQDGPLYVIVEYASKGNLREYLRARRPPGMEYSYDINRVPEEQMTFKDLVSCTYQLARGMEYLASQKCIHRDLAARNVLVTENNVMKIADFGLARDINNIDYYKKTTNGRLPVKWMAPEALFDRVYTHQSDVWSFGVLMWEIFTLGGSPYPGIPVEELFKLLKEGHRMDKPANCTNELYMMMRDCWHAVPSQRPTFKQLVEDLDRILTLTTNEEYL
Chain of IGF-1R(h), activated (human) (P08069 959-1367 limits assumed): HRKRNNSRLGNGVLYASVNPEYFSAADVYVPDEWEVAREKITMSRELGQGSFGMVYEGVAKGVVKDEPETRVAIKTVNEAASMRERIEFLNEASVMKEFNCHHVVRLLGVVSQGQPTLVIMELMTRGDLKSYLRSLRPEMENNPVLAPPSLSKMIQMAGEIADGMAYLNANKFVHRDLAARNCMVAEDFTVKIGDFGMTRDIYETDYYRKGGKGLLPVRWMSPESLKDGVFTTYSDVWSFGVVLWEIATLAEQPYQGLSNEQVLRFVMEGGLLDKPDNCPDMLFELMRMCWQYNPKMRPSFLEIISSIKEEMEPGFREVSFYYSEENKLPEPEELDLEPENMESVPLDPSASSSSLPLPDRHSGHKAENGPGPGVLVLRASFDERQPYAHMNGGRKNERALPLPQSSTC
Chain of CaMKIIγ(h) (human) (Q13555 whole entry): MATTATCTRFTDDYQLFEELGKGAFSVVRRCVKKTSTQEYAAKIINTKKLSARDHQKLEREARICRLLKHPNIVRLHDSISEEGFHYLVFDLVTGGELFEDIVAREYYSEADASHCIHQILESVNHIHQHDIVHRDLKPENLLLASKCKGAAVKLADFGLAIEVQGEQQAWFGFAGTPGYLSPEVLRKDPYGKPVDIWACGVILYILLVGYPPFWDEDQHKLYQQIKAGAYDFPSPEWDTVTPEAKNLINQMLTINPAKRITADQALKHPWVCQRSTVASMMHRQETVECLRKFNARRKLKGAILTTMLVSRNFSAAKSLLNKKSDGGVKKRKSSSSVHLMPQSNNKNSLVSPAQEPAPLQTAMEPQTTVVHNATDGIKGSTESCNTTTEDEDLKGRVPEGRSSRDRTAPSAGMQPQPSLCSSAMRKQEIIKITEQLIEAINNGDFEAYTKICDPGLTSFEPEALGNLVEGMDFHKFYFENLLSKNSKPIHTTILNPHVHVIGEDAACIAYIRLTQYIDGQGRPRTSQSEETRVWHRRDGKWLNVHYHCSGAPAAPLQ
Chain of PAK2(h) (human) (Q13177 whole entry): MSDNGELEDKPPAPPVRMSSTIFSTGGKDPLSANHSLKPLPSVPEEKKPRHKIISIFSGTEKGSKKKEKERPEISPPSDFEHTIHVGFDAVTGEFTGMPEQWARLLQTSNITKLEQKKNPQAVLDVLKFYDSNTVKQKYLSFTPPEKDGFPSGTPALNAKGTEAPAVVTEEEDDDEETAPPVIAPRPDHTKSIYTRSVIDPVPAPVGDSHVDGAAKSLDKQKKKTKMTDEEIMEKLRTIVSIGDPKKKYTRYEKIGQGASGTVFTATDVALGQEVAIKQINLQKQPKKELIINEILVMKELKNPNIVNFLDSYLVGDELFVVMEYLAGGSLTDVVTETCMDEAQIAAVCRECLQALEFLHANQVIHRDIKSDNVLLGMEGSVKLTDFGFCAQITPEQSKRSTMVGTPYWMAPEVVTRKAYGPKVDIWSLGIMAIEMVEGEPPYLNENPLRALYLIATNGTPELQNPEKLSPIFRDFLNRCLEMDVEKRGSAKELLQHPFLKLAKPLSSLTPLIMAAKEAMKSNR
Chain of PKBγ(h) (human) (Q9Y243 whole entry): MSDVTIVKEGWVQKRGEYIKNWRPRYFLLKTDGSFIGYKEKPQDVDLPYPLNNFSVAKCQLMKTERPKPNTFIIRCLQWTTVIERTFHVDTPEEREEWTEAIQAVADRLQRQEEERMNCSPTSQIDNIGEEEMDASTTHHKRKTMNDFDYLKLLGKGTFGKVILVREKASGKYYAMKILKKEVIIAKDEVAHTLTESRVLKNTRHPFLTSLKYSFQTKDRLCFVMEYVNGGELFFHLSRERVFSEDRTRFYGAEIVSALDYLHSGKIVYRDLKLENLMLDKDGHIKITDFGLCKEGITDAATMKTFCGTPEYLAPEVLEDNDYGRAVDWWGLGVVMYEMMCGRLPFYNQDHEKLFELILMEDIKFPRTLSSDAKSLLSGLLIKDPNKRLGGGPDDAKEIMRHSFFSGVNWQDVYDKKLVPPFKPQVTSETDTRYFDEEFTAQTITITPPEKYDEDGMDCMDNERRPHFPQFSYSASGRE

In the case of MMI-0300 (peptide), the % activity at 100 µM [1] is reported as 17%, the % activity at 100 µM [2] is reported as 33% and the % activity at 100 µM [3] is reported as 45%. For the same substance, the % activity at 100 µM [4] was 77%, the % activity at 100 µM [5] was 65% and the % activity at 100 µM [6] was 5%. The % activity at 100 µM [7] was 66%, the % activity at 100 µM [8] was 97% and the % activity at 100 µM [9] was 85%. The % activity at 100 µM [10] was 80%, the % activity at 100 µM [11] was 95% and the % activity at 100 µM [12] was 19%. The % activity at 100 µM [13] was 157%, the % activity at 100 µM [14] was 23% and the % activity at 100 µM [15] was 25%. For the same substance, the % activity at 100 µM [16] was 79%, the % activity at 100 µM [17] was 77% and the % activity at 100 µM [18] was 20%. The % activity at 100 µM [19] was 95%, the % activity at 100 µM [20] was 10% and the % activity at 100 µM [21] was 14%. The % activity at 100 µM [22] was 70% and the % activity at 100 µM [23] was 88%.

MMI-0400 (peptide) gave a % activity at 100 µM [1] of 18%, a % activity at 100 µM [2] of 25% and a % activity at 100 µM [3] of 52%. It also gave a % activity at 100 µM [4] of 75%, a % activity at 100 µM [5] of 59% and a % activity at 100 µM [6] of 3%. The % activity at 100 µM [7] was 68%, the % activity at 100 µM [8] was 98% and the % activity at 100 µM [9] was 78%. The % activity at 100 µM [10] was 77%, the % activity at 100 µM [11] was 87% and the % activity at 100 µM [12] was 16%. The % activity at 100 µM [13] was 164%, the % activity at 100 µM [14] was 19% and the % activity at 100 µM [15] was 22%. It also gave a % activity at 100 µM [16] of 76%, a % activity at 100 µM [17] of 77% and a % activity at 100 µM [18] of 41%. The % activity at 100 µM [19] was 99%, the % activity at 100 µM [20] was 17% and the % activity at 100 µM [21] was 18%. It also gave a % activity at 100 µM [22] of 74% and a % activity at 100 µM [23] of 76%.

MMI-0500 (peptide) gave a % activity at 100 µM [1] of -1%, a % activity at 100 µM [2] of 10% and a % activity at 100 µM [3] of 16%. It also gave a % activity at 100 µM [4] of 22%, a % activity at 100 µM [5] of 44% and a % activity at 100 µM [6] of 3%. For the same substance, the % activity at 100 µM [7] was 40%, the % activity at 100 µM [8] was 30% and the % activity at 100 µM [9] was 53%. For the same substance, the % activity at 100 µM [10] was 45%, the % activity at 100 µM [11] was 36% and the % activity at 100 µM [12] was 12%. The % activity at 100 µM [13] was 175%, the % activity at 100 µM [14] was 21% and the % activity at 100 µM [15] was 15%. It also gave a % activity at 100 µM [16] of 59%, a % activity at 100 µM [17] of 21% and a % activity at 100 µM [18] of 20%. For the same substance, the % activity at 100 µM [19] was 150%, the % activity at 100 µM [20] was 0% and the % activity at 100 µM [21] was 12%. For the same substance, the % activity at 100 µM [22] was 15% and the % activity at 100 µM [23] was 62%.
